Molecular target: T1, recombinant human insulin receptor (human, UniProt P06213-2 28-944, limits assumed)
T1 construct: ELISA coating protein; also called rhIR; human IR
Test: direct ELISA, coated protein 1 µg/ml, hybridoma supernatant
Description: Further characterizations of 810D12 antibody were then performed using hybridoma supernatants such as rhIGF-1R or rmIGF-1R or rhIR ELISA. In all direct ELISAs, proteins of interest were immobilized (1 μg/ml) to the bottom of each well. After saturation, hybridoma supernatants were added to the wells. After a 1-hour incubation period and a washing step, a solution of goat anti-mouse IgG-HRP labelled polyclonal antibody was used for detection, prior to the addition of the TMB substrate. The reaction was stopped with a 1M H₂SO₄ solution before reading the OD with a spectrophotometer at a 450 nm wavelength.

T1 sequence (P06213 other isoform, or with tags, fused parts or gaps limits assumed): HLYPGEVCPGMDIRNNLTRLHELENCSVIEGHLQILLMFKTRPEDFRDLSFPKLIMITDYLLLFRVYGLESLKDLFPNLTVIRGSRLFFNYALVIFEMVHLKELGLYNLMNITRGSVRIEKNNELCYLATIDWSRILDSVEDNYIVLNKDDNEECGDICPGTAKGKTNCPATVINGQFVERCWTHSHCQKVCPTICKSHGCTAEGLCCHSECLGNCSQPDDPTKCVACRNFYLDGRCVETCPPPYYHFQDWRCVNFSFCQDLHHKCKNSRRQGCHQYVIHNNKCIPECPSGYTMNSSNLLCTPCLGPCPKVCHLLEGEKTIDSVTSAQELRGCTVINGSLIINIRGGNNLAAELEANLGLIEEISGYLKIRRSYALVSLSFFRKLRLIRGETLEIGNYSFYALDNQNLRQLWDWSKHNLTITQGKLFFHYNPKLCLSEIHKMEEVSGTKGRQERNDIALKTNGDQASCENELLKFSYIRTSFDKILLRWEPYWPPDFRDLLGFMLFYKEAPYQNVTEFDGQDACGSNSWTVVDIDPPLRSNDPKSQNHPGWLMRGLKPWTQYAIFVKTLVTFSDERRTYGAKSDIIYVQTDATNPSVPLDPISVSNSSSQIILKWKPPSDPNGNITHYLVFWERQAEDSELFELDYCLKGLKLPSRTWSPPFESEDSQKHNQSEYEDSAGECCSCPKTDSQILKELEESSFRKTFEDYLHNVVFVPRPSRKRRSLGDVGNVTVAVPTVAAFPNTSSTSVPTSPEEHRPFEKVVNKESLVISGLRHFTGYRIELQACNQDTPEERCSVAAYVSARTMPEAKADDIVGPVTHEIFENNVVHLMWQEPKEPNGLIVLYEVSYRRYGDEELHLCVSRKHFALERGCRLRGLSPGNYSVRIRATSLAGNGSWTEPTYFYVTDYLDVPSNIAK

- binding result: no binding (tested: 5 µg/ml)
B1: 810D12 monoclonal antibody (secreted by hybridoma CNCM I-4893) (antibody, V domains shown)
VH: EVQLQQSGPELVKPGASVKMSCKASGHTFTSYMLHWVKQKPGQGLEWLGFINPYNDVTKYNENFKGKATLTSDKSSSTAYMELNSLTSEDSAVYFCVTTAYYGNGRYFDVWGAGTTVTVSS
VL: DIQMTQTTSSLSASLGDRVTISCRASQDITNYLTWYQQKPDGTVKVLIYYTSRLYSGVPSRFSGSGSGSDYSLTINNLEQEDIATYFCQQGYSLPWTFGGGTKLEIK
notes: Murine monoclonal antibody from a Balb/C hybridoma; The ELISAs used hybridoma supernatant; also called 810D12 antibody; 810D12I-4893

From patent US20180094060A1 (PIERRE FABRE MEDICAMENT, published 2018)
